The text below walks through data of publication PMC6497050.

A word on the Kd: it is the equilibrium constant for the complex coming apart.

Read-outs that look alike come from different tables or passages of the source.

Test [1] deals with importin α7 (UniProt O60684). Kind of test: fluorescence polarisation. On the technique in general: Fluorescence polarisation rises when a labelled molecule tumbles more slowly, as on binding a larger partner.
Test [2] has as its target importin α7 (UniProt O60684). Description: fluorescence polarisation. This is another data set of the same source.

Take “wild type LANS (Light Activated Nuclear Shuttle) (from UniProt O49003 404-546) (designed binder)”: the Kd with importin α7 [1] came to 30.4 µM; in the test with importin α7 [2], 1.3 µM.
